Assay results: the DeepSol protein solubility set

Experiment: soluble on expression in E. coli; label from the status in PepcDB or PDB records

| Sequence | soluble on expression in E. coli |
| --- | --- |
| MELVHEIAIDPNFQIPDKPTNAIQRCVQESMHKAYYNQLRRDLAKDPPELEYCFSFLMEVKTMILDDILTAQHTRLKAEINSMLDETALRGKLDQGQLDIKKVMKYIVDLCSRLCSPARDVKVAELRTRTDVIDIFEGTMDLLELMKNDLTNYQISQNRAAIEEYSSKHEYDMFQKFLIENPNGCYFARQWLKAAYDELFEKKLDAEGEETSVKKERKNEDTDTVLIDTTSRGYTKLIQVNEYDGFPETLKIDKIKIELLAEKFLQIVMCASSVFVTCNVAGKQISESADFKKTLKDHLIVITNNTDEERIKSDLEKIGEQCVKEAVDTSKKLNIEWNTESSTSIRNQINALISSDNPIRKLVHTRVSTFVEEMLRSPTSVPHRLLPGLSVIQSELCAFTSKFLRLCVHNRKTFYAMYSNLIQEFQGHTPSTHAIYRADSPSSMPGPSTSA | not soluble |
| MEMKNVKGTKDYLPEEQVLRNKIKRACEDTFERYGCKPLETPTLNMYELMSYKYGGGDEILKEIYTLQDQGKRNLALRYDLTIPFAKVVAMNPNIRLPFKRYEIGKVFRDGPIKQGRFREFIQCDVDIVGVESVMAEAELMSMAFELFRTLNLEVTIQYNNRKLLNGILESINIPTERTSDVILSLDKIEKIGIDGVRKDVLERGISEEMADTICNTVLSCLKLTIADFKEAFNNPLVADGVNELQQLQQYLIALGINENAIFNPFLARGLTMYTGTVYEIFLKDGSITSSIGSGGRYDNIIGAFRGDNMNYPTVGISFGLDVIYTALSQKETISSTADVFIIPLGTELQCLQIAQQLRSTTSLKVELELAGRKLKRALNYANKENIPYVLIIGEDELSTETVVLRNMKEGSEVKVPLSSLKDNTFNNYCNIPIKL | soluble |
| MEMSHRSSYFQSIIDEAGSLLRELMNIPDEYEVLFLQGGASLQFSMIPLNLMNTYKKAGYVLTGSWSKKALQEAEKVGEVQVIASSENEKFTTIPKLDGLLGDEKLDYVHITTNNTIEGTKYVDIPHVDKVPLVADMSPNILSERYDVSKFGLIYAGAQKNLGPAGLTIAIIKRDLIGGADRYCPTMLNYETYSKNNSLYNTLPSFSIYVTKLVLEWLKEQGGVSAIEEQNKMKSSLLYNFLDESKLLTSPVDPAYRSLMNIPFTTPSEELNNEFLQKAKERGLVTLKGHRSVGGMRASIYNAMPVQGVQQLVNYMKEFELENR | not soluble |
| MENDLKKLTKEIVGRLKNKSVKELLSYAIFNEEEEAKFYADLAEKVSRPSVKALFRRMSEESKVHELLLRKLFSKYFPGEEPVKVDVPPVEVVPFISKFESIEDYLEGLRYCMESELFAKRTYVLLSQVAENEGVRMVANELASIEQNHYEEIKAVYELVKTFRDREMLPESLKSGAYLITNESVGKYLILDLIDENKKLKLFVRENPEIFRRLIGENPNVEITWIAKVNAPNTISPTETHVLKKDIESFFEKVTKEGKKGVVFIQNVAYLVANLGFKETVDLLLHAKDLAVYYGGYLIITANPEVFEKTEWALLKLEFEVLF | not soluble |
| MENEVVFFCRKCNHHLFAKNPMINTLKVISEMDCPNCGEEGYHNWILSHIGDSEKEKENYNWKLEHHHHHH | soluble |
| MENFIDTLENWRDQKQIISVICKDGIKIDDSIITSFKASKDVGISNGLRIQLTFQEINFKAIVGQTDVSAATGRTSTTNDGGATSKKNTGNTTTSLGSPMLTCKELFSYSASELSDEALKARVTCSKSVSVKNGESTFTA | not soluble |
| MENILDYNEAELKQWMDKNGEKTFRAKQFFDWIYNGTFDFKDMKNLPQSTRERLEKNFYIGMPSVVKRLNSKKGDTVKFLFRYNDGNIIECVVMKYDYGNSICISTQVGCRMGCSFCASTIGGRVRDLTSGEILAQILKAQKEIGERISNIVLMGSGEPLDNYDNVIKFIRIVNSEKGLNIGQRHITLSTCGIVPRIYDLMKENLQITLAISLHASDDETRKKIMPIANRYSISEIIDCCKKYSDFTGRRITFEYSLVKDVNDDKESAKKLGELLSGMLCHVNLIPVNTVNETSYEKPESSKIKKFCDTLLKYKIESTIRKEMGADINAACGQLRRNYIEESEGK | not soluble |
| MENKSIAIFIDAENIPAKYAKSIFDIASDYGEVIIKRIYGDWTQKNIQGWREQIAEYSLIAMQQFNFAANKNSSDMYLITEIMSIFYEKNIDIFVIVSSDSDYTSLIQKLRENKKQVIGMGLEKSIKSYVNAFSEFFYLDKDESKKEDILSKDYLRALINITEQLIDEKGRAEYAQIRTNMNRKYSDFHPQNYGFKNFRALIQKFLPKMKKFEEEREKNIYFLVKKDYESYYLEHHHHHH | not soluble |
| MENTENSVDSKSIKNLEPKIIHGSESMDSGISLDNSYKMDYPEMGLCIIINNKNFHKSTGMTSRSGTDVDAANLRETFRNLKYEVRNKNDLTREEIVELMRDVSKEDHSKRSSFVCVLLSHGEEGIIFGTNGPVDLKKITNFFRGDRCRSLTGKPKLFIIQACRGTELDCGIETDSGVDDDMACHKIPVDADFLYAYSTAPGYYSWRNSKDGSWFIQSLCAMLKQYADKLEFMHILTRVNRKVATEFESFSFDATFHAKKQIPCIVSMLTKELYFYH | soluble |
| MEPHKVVPLSKPHPPVVGKVTHHSIELYWDLEQKEKRQGPQEQWLRFSIEEEDPKMHSYGVIYTGYATRHVVEGLEPRTLYKFRLKVTSPSGEYEYSPVVSVATTRE | soluble |
| MEPLMNQSLHICGCCKRELPHEAFYTNKRTGTLDNYCKECRKANTRKRRDLRRCTSFENKPVSYPVITEVKDPALRMLLILHARQVVAESISRKQEKEKLNTLWEE | not soluble |
| MEPLSHRGLPRLSWIDTLYSNFSYGTDEYDGEGNEEQKGPPEGSETMPYIDESPTMSPQLSARSQGGGDGVSPTPPEGLAPGVEAGKGLEMRKLVLSGFLASEEIYINQLEALLLPMKPLKATATTSQPVLTIQQIETIFYKIQDIYEIHKEFYDNLCPKVQQWDSQVTMGHLFQKLASQLGVYKAFVDNYKVALETAEKCSQSNNQFQKISEELKVKGPKDSKDSHTSVTMEALLYKPIDRVTRSTLVLHDLLKHTPVDHPDYPLLQDALRISQNFLSSINEDIDPRRTAVTTPKGETRQLVKDGFLVEVSESSRKLRHVFLFTDVLLCAKLKKTSAGKHQQYDCKWYIPLADLVFPSPEESEASPQVHPFPDHELEDMKMKISALKSEIQKEKANKGQSRAIERLKKKMFENEFLLLLNSPTIPFRIHNRNGKSYLFLLSSDYERSEWREAIQKLQKKDLQAFVLSSVELQVLTGSCFKLRTVHNIPVTSNKDDDESPGLYGFLHVIVHSAKGFKQSANLYCTLEVDSFGYFVSKAKTRVFRDTAEPKWDEEFEIELEGSQSLRILCYEKCYDKTKVNKDNNEIVDKIMGKGQIQLDPQTVETKNWHTDVIEMNGIKVEFSMKFTSRDMSLKRTPSKKQTGVFGVKISVVTKRERSKVPYIVRQCVEEVEKRGIEEVGIYRISGVATDIQALKAVFDANNKDILLMLSDMDINAIAGTLKLYFRELPEPLLTDRLYPAFMEGIALSDPAAKENCMMHLLRSLPDPNLITFLFLLEHLKRVAEKEPINKMSLHNLATVFGPTLLRPSEVESKAHLTSAADIWSHDVMAQVQVLLYYLQHPPISFAELKRNTLYFSTDV | soluble |
| MEPVTSSEREAELERELDLLRKELNIEQKMNSELKRLMIATLSDELQGQVEALTEDKVRLAHRVDEYMGKLMVEDEESDRLRIDRDVWKCKFLAQSIRCDELTSKNEYLLKTLVGIQQAVKTKNVTSDEISDFTQLDLQPLFHRSPCEERVRPITAKYTNLTIACCKNCMGRDIQLL | not soluble |
| MEQDDPSGEWPLIAALPVRQDVPVDALLADVAAQLAAEGLRTAGFLQRDGVRLEDLTSGALYPITQDLGPGSSGCRLDPAGLALAAAAGLAALERGADLLVIPRFGKAEIEGEGMRGVIGRACELGVPTLVGVRQSAEPAWETFAGGLAEWIAPERQAVAGWCRTACAPVRCRTLEHHHHHH | not soluble |
| MEQETLEQVHLTEDGGVVKTILRKGEGGEENAPKKGNEVTVHYVGKLESSGKVFDSSRERNVPFKFHLGQGEVIKGWDICVASMTKNEKCSVRLDSKYGYGEEGCGESIPGNSVLIFEIELISFRE | soluble |
| MEQKFCQSCGMPLNPEVLGTEKDGSKNEEYCTYCYADGHFTVECTMDEMINQCAQFVDEFNKGSEVKMTKEEAIANMKQFFPMLKRWKQ | not soluble |
| MEQKTENKWPLQFEVIEEIKQVGRWSAPSWRLGDIHLYEKVNETQDNVSLFERDLEIFRDERTDYRFNLSSQDPKLFFAFENDNDQLTPVMITASQSMIGQYMDGDYLVLSTAMPLPMQAWLEAYIGKHGELLEVRKKKRKGAGRASEQLPK | not soluble |
| MEQLKKQVCDYIESHEEESVKFLKRLIQEKSVSGDESGAQAIVIEKLRELGLELDIWEPSFSKMKDHPYFVSPRTSFSDSPNIVATLKGSGDGKSMILNGHIDVVPEGDVNQWEHHPYSGEKIGNRIYGRGTTDMKGGNVALMLAMEAIIESNIELKGDIYFQSVIEEESGGAGTLATILRGYKADGVIIPEPTNMKFFPKQQGSMWFRLRVKGKAAHGGTRYEGVSAIEKSMFVIEHVRKLEEKRNSRITDPLFKEIPIPIPINIGKIEGGSWPSSVPDELILEGRCGVAPNETIEAAKEEFENWIAELNDVDNWFVENPVEVEWFGARWVPGELEENHELITTLHHNFVEIEGNEPIIEASPWGTDGGLFTQIANVPTIVFGPGETKVAHYPNEYIEVDKMIAAAKIIACTLLDWCEVKK | not soluble |
| MEQQPQLNDHNKQEYPPMHTAEHLLNATMVKTFGCPRSRNAHIERKKSKCDYILPTCPTDAEIQAIEDKVNEVISQNLPVTVEFMTHEQAKGIVDLSKLPADASETLRIIRIGDYDACACIGLHVSNTSEVGTFKIISHDYNEERQTLRLRFKLIEKK | not soluble |
| MEQSFTADINEINITNGKLDFSDSSLTPKFSAGIYSLNGDITGLSSNEDSRAKIDLKGKVDKYAPVIIKGSVNPLSHDAFTDIDMLFNGIELTTFTPYSGKFAGYAIDKGKLSLGLNYKLSNNKLVAENNVTLDQLTLGEVVNSEEATSLPIKFALSLLKDSDGLEHHHHHH | soluble |
| MERAHRIDLKLLRYFLAVAEELHFGRAAARLNMSQPPLSIHIKELEQQLGTLLFIRHSRSVALTHAGKVLMEESRRLLASANQALARVEQIGRGEAGRIELGVVGTALWGRMRPAMRHFLKANPNVEVLFREKSPGMQMALLERRELDAGIWRMAIEPAVGFTSIRLHESAFMVAVPEDHDLASRDSVPLAALRNEYFVTLPSVHSDWGFLQRVCQQAGFSPMIIREVVEPQTVLAMISMGIGITLMADGYAQMSWPGVVFRPLEERIPADLYIVYDQQQATPALEKLVAALTV | not soluble |
| MERGPLIFSASIGNGHNQAAKALQVEFQNKGYQPEIIDTFYSLSPALHKFMLTSYVNLLKVGPRIWQKIYFQAEKYPLFLFLDQFATFFVESLHATVKSNRCSFLVSTHPFVTAFLVRLKSKKQLNLPLYTVITDFVLHPAYLRPEIDGYFTSDPNFTDFAKLNNVSDDRFFPTGIPIPNLESIDQPKWKVRNDLGLDPQRKVLIIAGGGIGLTNYAQVIRALECLPEPIQLLCMIGHNYQVKEKISRIKSKHELKVIEFTDKFLLYLKASDAILSKAGGLTMAESLVCETPIIIHQPVPGHEEHNAKFLIDAGAALRVKGSKEIPTTIKRVLYEEACFGPMIENARKLKKPNAANEIVEQMLLLVKEQQHAFRLEHHHHHH | soluble |
| MERKSPSGKKFRSKPQLARYLGGSMDLSTFDFRTGKMLMSKMNKSRQRVRYDSSNQVKGKPDLNTALPVRQTASIFKQPVTKITNHPSNKVKSDPQKAVDQPRQLFWEKKLSGLNAFDIAEELVKTMDLPKGLQGVGPGCTDETLLSAIASALHTSTMPITGQLSAAVEKNPGVWLNTTQPLCKAFMVTDEDIRKQEELVQQVRKRLEEALMADMLAHVEELARDGEAPLDKACAEDDDEEDEEEEEEEPDPDPEMEHV | soluble |
